In experiment [1] the target is T1, Cry1Ab insecticidal protein (Bacillus thuringiensis, UniProt P0A370 1-615). Kind of experiment: direct ELISA, coated protein, SA-AP, 405 nm. (In general: ELISA stands for enzyme-linked immunosorbent assay.)
Experiment [2] has as its target Cry1Ab.1Ca insecticidal protein. Kind of experiment: direct ELISA, coated protein, SA-AP, 405 nm.
Experiment [3] concerns the target eCry3.1Ab hybrid insecticidal protein. Briefly: direct ELISA: protein coated at 500 ng/ml, 10 nM tagged synNAPS with SA-AP.
The target in experiment [4] is T2, mCry3A insecticidal protein (Bacillus thuringiensis subsp. …, UniProt P0A379 48-644, limits assumed).
T2 construct: also called modified Cry3A
T2 sequence: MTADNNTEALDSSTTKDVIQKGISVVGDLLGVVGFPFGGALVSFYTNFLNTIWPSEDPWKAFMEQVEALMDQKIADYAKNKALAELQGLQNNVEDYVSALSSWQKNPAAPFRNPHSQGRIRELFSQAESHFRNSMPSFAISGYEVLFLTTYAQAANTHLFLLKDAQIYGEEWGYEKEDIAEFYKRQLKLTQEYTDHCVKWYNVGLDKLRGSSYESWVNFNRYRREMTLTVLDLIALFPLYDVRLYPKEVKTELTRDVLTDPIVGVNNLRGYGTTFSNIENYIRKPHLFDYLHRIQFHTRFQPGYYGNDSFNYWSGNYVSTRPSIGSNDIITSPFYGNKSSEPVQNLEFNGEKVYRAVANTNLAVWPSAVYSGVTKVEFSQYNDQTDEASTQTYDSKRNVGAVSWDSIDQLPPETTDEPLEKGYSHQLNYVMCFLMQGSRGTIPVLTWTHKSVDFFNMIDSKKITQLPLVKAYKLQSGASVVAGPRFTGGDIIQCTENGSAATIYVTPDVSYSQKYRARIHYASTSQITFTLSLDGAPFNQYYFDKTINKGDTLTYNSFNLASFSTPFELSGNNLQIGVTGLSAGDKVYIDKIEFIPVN
The description is as above.

Experiment [5] has as its target T3, Cry1Aa insecticidal protein (Bacillus thuringiensis subsp. aizawai, UniProt P0A367 12-1176). The experiment is described as above.
Experiment [6] has as its target Cry1Ai insecticidal protein. Described as above.
For experiment [7], the target named is eCry3.1Ab hybrid insecticidal protein. Kind of experiment: direct ELISA, coated protein, SA-AP, 405 nm.
For experiment [8], the target named is T2, mCry3A insecticidal protein. Kind of experiment: direct ELISA, coated protein, SA-AP, 405 nm.
For experiment [9], the target named is T3, Cry1Aa insecticidal protein. Kind of experiment: direct ELISA, coated protein, SA-AP, 405 nm.
Experiment [10] addresses Cry1Ai insecticidal protein. Kind of experiment: direct ELISA, coated protein, SA-AP, 405 nm.
The target in experiment [11] is T1, Cry1Ab insecticidal protein. Kind of experiment: direct ELISA: protein coated at 500 ng/ml, 10 nM tagged synNAPS with SA-AP.
For experiment [12], the target named is Cry1Ab.1Ca insecticidal protein. Described as above.
Experiment [13] concerns the target T1, Cry1Ab insecticidal protein. Kind of experiment: direct binding ELISA with leaf extracts expressing synNAPS-13, A405.
The target of experiment [14] is T2, mCry3A insecticidal protein. The experiment is described as above.
The target of experiment [15] is eCry3.1Ab hybrid insecticidal protein. Briefly: direct ELISA: eCry3.1Ab coated at 1 ug/ml, RGS-His HRP detection.
In experiment [16] the target is T1, Cry1Ab insecticidal protein. Briefly: sandwich ELISA: synNAPS on streptavidin plate, HRP-antibody detection; Cry1Ab 10 ng/ml.
Experiment [17] addresses T2, mCry3A insecticidal protein. Briefly: sandwich ELISA: synNAPS on streptavidin plate, HRP-antibody detection; mCry3A 60 ng/ml.
Experiment [18] shares this target. Kind of experiment: affinity capture on synNAPS-13 streptavidin beads from corn leaf extract, eluate measured by ELISA.

Changes are numbered by the printed parent chain.

B1: synNAPS-11tag ligand (designed binder)
chain: MRGSHHHHHHGSVKVKFGLGGEEKEVDTSKIRRVLRLGKLVSFTYDDNGKIGLGDVHEKDAPKELLDMLARAEREKKLGSGLNDIFEAQKIEWH
modifications: in vivo biotinylation (E. coli BirA strain) on the C-terminal avidin-tag
notes: also called tagged synNAPS 11
In the case of B1, the binding result in experiment [1] and in experiment [2] was “no binding (tested: 10 nM)” in each case. The “Binding to Insecticidal Protein (read at 405 nm)” value (“Binding to Insecticidal Protein” for short) in experiment [3] stood at 1.5 absorbance 405 nm; in experiment [4] it was 2.9 absorbance 405 nm; in experiment [5], 0.6 absorbance 405 nm; in experiment [6], 0.7 absorbance 405 nm.

B2: synNAPS-5tag ligand (designed binder)
chain: MRGSHHHHHHGSVKVKFVLKGEEKEVDTSKITYVARYGKFVQFDYDDNGKFGAGVVLEKDAPKELLDMLARAEREKKLGSGLNDIFEAQKIEWH
modifications: in vivo biotinylation (E. coli BirA strain) on the C-terminal avidin-tag
notes: also called tagged synNAPS 5
Consider B2, for which the binding result in [7], in [8], in [9] and in experiment [10] was “no binding (tested: 10 nM)” each time. Further, the “Binding to Insecticidal Protein” value came out at 1.1 absorbance 405 nm in experiment [11] and 1.6 absorbance 405 nm in experiment [12].

B3: synNAPS-13 ligand (designed binder)
chain: MVKVKFKRWGEEKEVDTSKILHVLRVGKYVRFSYDDNGKLGAGYVTEKDAPKELLDMLARAEREKK
Take B3: the binding result in [13] and in [14] was “no binding” in each case. Besides, the “Binding (OD 450 nm)” value in experiment [15] was 4.1 OD 450 nm.

B4: synNAPS-9tag ligand (designed binder)
chain: MRGSHHHHHHGSVKVKFAQGGEEKEVDTSKIYRVPRHGKIVFFMYDDNGKGGFGHVTEKDAPKELLDMLARAEREKKLGSGLNDIFEAQKIEWH
modifications: in vivo biotinylation (E. coli BirA strain) on the C-terminal avidin-tag
notes: also called NsynNAPS9; tagged synNAPS 9
On to B4, for which the binding result in experiment [1], in experiment [7], in experiment [9], in experiment [10] and in experiment [2] was “no binding (tested: 10 nM)” each time. Further, the “Binding to Insecticidal Protein” value in experiment [4] turned out to be 0.7 absorbance 405 nm. Moreover, the “Absorbance at protein concentration (ng/ml)” value (from here on “Absorbance”) worked out at 0 absorbance 450 nm in [16] and 2 absorbance 450 nm in experiment [17].

B5: synNAPS-13tag ligand (designed binder)
chain: MRGSHHHHHHGSVKVKFKRWGEEKEVDTSKILHVLRVGKYVRFSYDDNGKLGAGYVTEKDAPKELLDMLARAEREKKLGSGLNDIFEAQKIEWH
modifications: in vivo biotinylation (E. coli BirA strain) on the C-terminal avidin-tag
notes: also called tagged synNAPS 13
Turning to B5, the binding result in [1], in experiment [8], in experiment [9], in experiment [10] and in [2] was “no binding (tested: 10 nM)” throughout. The “Absorbance” value in experiment [16] and in experiment [17] was 0 absorbance 450 nm throughout. The “Quantity of Protein (ng/ml) eluted from synNAPS-13 beads” value in experiment [18] is 0 ng/mL.

B6: synNAPS-2tag ligand (designed binder)
chain: MRGSHHHHHHGSVKVKFKYKGEEKEVDTSKIVWIGRFGKSVYFRYDDNGKTGAGRVYEKDAPKELLDMLARAEREKKLGSGLNDIFEAQKIEWH
modifications: in vivo biotinylation (E. coli BirA strain) on the C-terminal avidin-tag
notes: also called tagged synNAPS 2
On to B6, for which the binding result in [7], in experiment [8] and in experiment [9] was “no binding (tested: 10 nM)” each time. The figures for the “Binding to Insecticidal Protein” value in experiment [11], in experiment [6] and in experiment [12] were 1.8 absorbance 405 nm, 2.5 absorbance 405 nm and 1 absorbance 405 nm, respectively. In addition, the results for the “Absorbance” value in [16] and in experiment [17] were 4 absorbance 450 nm and 0 absorbance 450 nm, respectively.

B7: synNAPS-4tag ligand (designed binder)
chain: B6 chain with V32S, W33Y, I34V, G35Q, F37A, R44N, A53G, Y57F
modifications: in vivo biotinylation (E. coli BirA strain) on the C-terminal avidin-tag
notes: also called tagged synNAPS 4
Consider B7, for which the binding result in [7], in [8] and in experiment [9] was “no binding (tested: 10 nM)” throughout. The “Binding to Insecticidal Protein” value was found to be 1.75 absorbance 405 nm in [11], 2.6 absorbance 405 nm in experiment [6] and 0.75 absorbance 405 nm in experiment [12].
